Patent US20240034813A1 (Janssen / Centocor, published 2024)

Columns and labels:
[1] = target: T1, recombinant cMet/HGFR with c-terminal His-tag, Cy5-labeled (UniProt P08581 25-932, limits assumed, Cy5 label (reacted with Cy5 Mono NHS Ester; sites not stated)); assay: competitive TR-FRET (Eu-amivantamab/Cy5-c-MET), EC50 ratio vs Reference Material; Ex. 2 Formulation 1 (10 mM histidine), T0, 40 C table
T1 construct: Commercial protein; also called Cy5-c-MET; Cy5-labeled c-MET antigen; not shown: C-terminal His-tag
Excerpt: (§1) In this procedure, varying concentrations of unlabeled bispecific EGFR-cMet antibody sample compete with donor fluorophore (Europium (Eu) chelate) labeled bispecific EGFR-cMet antibody for binding to an acceptor fluorophore (Cy5)-labeled c-MET antigen. Excitation of the donor fluorophore results in a transfer of energy to the bound acceptor fluorophore (FRET process). The resultant FRET is detected by emission of light at 665 nm using a microplate reader capable of measuring time-resolved fluorescence. Sample dose response curves are compared to the Reference Material (RM).
(§2) c-MET Binding Materials and Methods. Certified commercial cMet, a recombinant cMet/HGFR with c-terminal His-tag is reacted with certified commercial Cy5 Mono NHS Ester to produce Cy5-labeled c-MET. Validated bispecific EGFR-cMet antibody is reacted with certified commercial Europium (Eu) chelate to produce Eu labeled bispecific EGFR-cMet antibody. […] Fluorescence is then measured by spectrophotometry at 665 nm, plotted against antibody concentration and analyzed by a four-parameter logistic model. The antibody concentration required to obtain half of the maximum fluorescence response (EC50) is determined for RM, assay control and samples. The potencies of assay control and samples are calculated based on the ratio of the sample (or control) and RM EC50 values and reported as a percentage activity relative to the RM.

[2] = target: T2, recombinant human EGFR/ErbB1/HER1 with C-terminal His tag, Cy5-labeled (human, UniProt P00533 25-645, Cy5 label (reacted with Cy5 Mono NHS Ester; sites not stated)); assay: competitive TR-FRET (Eu-amivantamab/Cy5-EGFR), EC50 ratio vs Reference Material; Ex. 2 Formulation 2 (50 mM histidine), 3 months at 5 C
T2 construct: Commercial protein; also called Cy5-EGFR; Cy5-labeled EGFR antigen; not shown: C-terminal His tag
Excerpt: (§3) In this procedure, varying concentrations of unlabeled bispecific EGFR-cMet antibody sample compete with donor fluorophore (Europium (Eu) chelate) labeled bispecific EGFR-cMet antibody for binding to an acceptor fluorophore (Cy5)-labeled EGFR antigen. Excitation of the donor fluorophore results in a transfer of energy to the bound acceptor fluorophore (FRET process). The resultant FRET is detected by emission of light at 665 nm using a microplate reader capable of measuring time-resolved fluorescence. Sample dose response curves are compared to the RM.
as §2, with “EGFR” for “c-MET”, “EGFR,” for “cMet,”, “human EGFR/ErbB1/HER1” for “cMet/HGFR”, “C-terminal His tag” for “c-terminal His-tag”, “EGFR.” for “c-MET.”, “Eu-labeled” for “Eu labeled”

[3] = target: T1, recombinant cMet/HGFR with c-terminal …; assay: competitive TR-FRET (Eu-amivantamab/Cy5-c-MET), EC50 ratio vs Reference Material; Ex. 11 drug product, 0 months, 40 C table
Excerpt: as §1, §2

[4] = target: T2, recombinant human EGFR/ErbB1/HER1 with …; assay: competitive TR-FRET (Eu-amivantamab/Cy5-EGFR), EC50 ratio vs Reference Material; Ex. 11 drug product, 3 months at 40 C
Excerpt: as §3
as §2, with “EGFR” for “c-MET”, “EGFR,” for “cMet,”, “human EGFR/ErbB1/HER1” for “cMet/HGFR”, “C-terminal His tag” for “c-terminal His-tag”, “EGFR.” for “c-MET.”, “Eu-labeled” for “Eu labeled”

[5] = target: T2, recombinant human EGFR/ErbB1/HER1 with …; assay: competitive TR-FRET (Eu-amivantamab/Cy5-EGFR), EC50 ratio vs Reference Material; Ex. 11 drug product, 6 months at 5 C
Excerpt: as §3
as §2, with “EGFR” for “c-MET”, “EGFR,” for “cMet,”, “human EGFR/ErbB1/HER1” for “cMet/HGFR”, “C-terminal His tag” for “c-terminal His-tag”, “EGFR.” for “c-MET.”, “Eu-labeled” for “Eu labeled”

[6] = target: T1, recombinant cMet/HGFR with c-terminal …; assay: competitive TR-FRET (Eu-amivantamab/Cy5-c-MET), EC50 ratio vs Reference Material; Ex. 11 drug product, 3 months at 25 C
Excerpt: as §1, §2

[7] = target: T1, recombinant cMet/HGFR with c-terminal …; assay: competitive TR-FRET (Eu-amivantamab/Cy5-c-MET), EC50 ratio vs Reference Material; Ex. 3 acetate formulation with PS80, T0
Excerpt: as §1, §2

[8] = target: T2, recombinant human EGFR/ErbB1/HER1 with …; assay: competitive TR-FRET (Eu-amivantamab/Cy5-EGFR), EC50 ratio vs Reference Material; Ex. 2 Formulation 3 (acetate), 1 month at 40 C
Excerpt: as §3
as §2, with “EGFR” for “c-MET”, “EGFR,” for “cMet,”, “human EGFR/ErbB1/HER1” for “cMet/HGFR”, “C-terminal His tag” for “c-terminal His-tag”, “EGFR.” for “c-MET.”, “Eu-labeled” for “Eu labeled”

[9] = target: T1, recombinant cMet/HGFR with c-terminal …; assay: competitive TR-FRET (Eu-amivantamab/Cy5-c-MET), EC50 ratio vs Reference Material; Ex. 12 drug product with rHuPH20, 5 months at 5 C
Excerpt: as §1, §2

B1: amivantamab (bispecific antibody, human IgG1, kappa)
heavy 1: not shown
light 1: not shown
heavy 2: not shown
light 2: DIQMTQSPSSVSASVGDRVTITCRASQGISNWLAWFQHKPGKAPKLLIYAASSLLSGVPSRFSGSGSGTDFTLTISSLQPEDFATYYCQQANSFPITFGQGTRLEIKRTVAAPSVFIFPPSDEQLKSGTASVVCLLNNFYPREAKVQWKVDNALQSGNSQESVTEQDSKDSTYSLSSTLTLSKADYEKHKVYACEVTHQGLSSPVTKSFNRGEC
notes: The samples tested were high concentration (160 mg/mL) formulations, fresh or stored or stressed; also called JNJ-61186372; bispecific EGFR-cMet antibody
- cMET Binding % activity relative to RM [1]: 87%
- EGFR Binding % activity relative to RM [2]: 96%
- cMET Binding activity relative to Reference Material (%) [3]: 85%
- EGFR Binding activity relative to Reference Material (%) [4]: 8%
- EGFR Binding activity relative to Reference Material (%) [5]: 84%
- cMET Binding activity relative to Reference Material (%) [6]: 94%
- cMET Binding % activity relative to RM [7]: 94%
- EGFR Binding % activity relative to RM [8]: 76%
- cMET Binding activity relative to Reference Material (%) [9]: 100%
